Results on two substances are retold here after PMC6366636.

The target of assay [1] is Cry1Ab toxin of Bacillus thuringiensis subsp. berliner 1715 (trypsin-activated) (Bacillus thuringiensis subsp. berliner 1715) (UniProt P0A370). The assay is described as follows: native gel or EMSA. Background: Mobility shift assays separate free from complexed probe on a gel.
Assay [2] addresses Fluorescently labeled EC12 probe (EC12 A36C/Y44W conjugated with Alexa-488) (Manduca sexta). The assay is described as follows: native gel or EMSA.

The substance “EC12_(SQ/AA) (alanine substitution of the serine-glutamine dipeptide in EC12) (domain or fragment)” returned a decrease of the capacity to compete with the EC12 probe, against EC12WT in assay [1] of 50%. Turning to “Cry1Ab toxin of Bacillus thuringiensis subsp. berliner 1715 (trypsin-activated) (from UniProt P0A370 1-1155) (natural protein)”, the Kd (commonly a measure of binding affinity in units of concentration) in assay [2] came out at 19.5 nM.
